In this data set the target is Cas9 (Streptococcus pyogenes, UniProt Q99ZW2 1-1368). As to the kind of experiment: R-loop formation gel assay (deproteinised); sgran50; 5 mM EDTA; efficiency similar to fusions; 25 mM Tris pH 7.5, 106 mM KCl, 50 ug/ml BSA, 5 mM EDTA, 2 mM DTT, 9% glycerol, 37 C; 150 nM protein, 300 nM sgRNA, 25 nM Cy5-dsran50, 75 nM unlabelled MW12 dsDNA competitor; 8% acrylamide TBE gel. To be noted: protein: recombinant, tags: His6, label: 5'-Cy5 on ssran50 strand (strand 2), blunt 50 bp DNA target plus sgRNA, PAM TGG.

The results in this text go back to paper PMC7786333, “Integration of diverse DNA substrates by a casposase can be targeted to R-loops in vitro by its fusion to Cas9”.

Cas9, sequence (Q99ZW2 whole entry, the tested form may be a part): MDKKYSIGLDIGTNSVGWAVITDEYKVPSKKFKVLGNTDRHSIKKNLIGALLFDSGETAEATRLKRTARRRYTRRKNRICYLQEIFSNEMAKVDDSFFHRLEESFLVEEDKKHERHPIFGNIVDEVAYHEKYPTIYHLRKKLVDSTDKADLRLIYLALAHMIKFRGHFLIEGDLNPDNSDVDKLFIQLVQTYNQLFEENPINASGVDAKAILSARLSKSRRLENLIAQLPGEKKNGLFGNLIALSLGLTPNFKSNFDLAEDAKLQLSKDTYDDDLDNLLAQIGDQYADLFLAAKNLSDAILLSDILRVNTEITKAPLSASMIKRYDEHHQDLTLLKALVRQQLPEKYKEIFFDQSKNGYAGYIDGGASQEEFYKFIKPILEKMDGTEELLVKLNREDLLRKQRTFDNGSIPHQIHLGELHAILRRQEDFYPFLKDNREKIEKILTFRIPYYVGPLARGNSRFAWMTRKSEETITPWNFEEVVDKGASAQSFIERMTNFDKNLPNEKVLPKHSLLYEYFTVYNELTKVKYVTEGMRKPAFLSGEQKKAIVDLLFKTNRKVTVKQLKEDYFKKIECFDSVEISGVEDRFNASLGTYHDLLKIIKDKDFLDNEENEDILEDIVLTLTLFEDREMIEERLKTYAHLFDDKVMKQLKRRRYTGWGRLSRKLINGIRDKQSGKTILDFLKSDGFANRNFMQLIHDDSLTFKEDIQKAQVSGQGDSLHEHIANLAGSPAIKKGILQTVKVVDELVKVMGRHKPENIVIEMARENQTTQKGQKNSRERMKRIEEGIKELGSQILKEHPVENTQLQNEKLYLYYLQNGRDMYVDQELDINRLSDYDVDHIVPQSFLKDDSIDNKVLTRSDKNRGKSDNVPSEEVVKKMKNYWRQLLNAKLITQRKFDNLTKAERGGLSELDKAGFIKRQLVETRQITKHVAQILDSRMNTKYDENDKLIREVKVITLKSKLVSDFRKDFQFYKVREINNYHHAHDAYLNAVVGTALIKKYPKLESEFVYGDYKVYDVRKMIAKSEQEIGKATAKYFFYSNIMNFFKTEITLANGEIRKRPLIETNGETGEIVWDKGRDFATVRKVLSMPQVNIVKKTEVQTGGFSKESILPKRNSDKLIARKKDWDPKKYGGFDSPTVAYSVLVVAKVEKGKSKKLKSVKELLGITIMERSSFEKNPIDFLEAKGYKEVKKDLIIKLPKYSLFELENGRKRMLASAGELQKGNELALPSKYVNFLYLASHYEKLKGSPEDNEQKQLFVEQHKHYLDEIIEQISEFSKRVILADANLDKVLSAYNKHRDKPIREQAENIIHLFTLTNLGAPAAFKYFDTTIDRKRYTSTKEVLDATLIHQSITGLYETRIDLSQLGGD

B1: sgran50 + dsran50 (mixed)
RNA: GGUAGACGAUUACAUUGCUACAGUUUUAGAGCUAGAAAUAGCAAGUUAAAAUAAGGCUAGUCCGUUAUCAACUUGAAAAAGUGGCACCGAGUCGGUGCUU
DNA 1: CAACGTCATAGACGATTACATTGCTACATGGAGCTGTCTAGAGGATCCGA
DNA 2: TCGGATCCTCTAGACAGCTCCATGTAGCAATGTAATCGTCTATGACGTTG
On to B1, for which the binding result is reported as “binds”.
